Measurements taken from the DeepSol protein solubility set.

experiment: soluble on expression in E. coli; label from the status in PepcDB or PDB records

| Sequence | soluble on expression in E. coli |
| --- | --- |
| MGSDKIHHHHHHMYLLDSTIAKKIVSRTMKIIGHNINVMNGQGVILGSGDPKRIGSTHEGALLAIAQNRNVELSDEVASGLHGVKPGINLPLHYQGQIIGVIGITGAPDELAHYGELLKMTAEMIVEQANQQDKLQWENRQREEFILQLIKANTDDEQLQRWAKQLDIDINLPRVAAIIEISEKLSAPIHKTASLINAAASESSVDERNPRVSETLKQVLHLLQNPDRGNLIAMTSMSQLVILKPAFLDGKQWDPELENQRIDKLLQRLPAQMGLHFKIALGHFFPEKGGIARSYQTAQETLNLGKQLNPEGTKYLFEDYSLQVLLSGLKHDWRGQALASPYQQLTQADKNGQLRKTLAAYITHFGDAQQCANALFIHRNTLRYRLDKIQQLTQTDIQSLHGLLSLYLGQLLDTSANPR | not soluble |
| MGSDKIHHHHHHMYLLVDVGNTHSVFSITEDGKTFRRWRLSTGVFQTEDELFSHLHPLLGDAMREIKGIGVASVVPTQNTVIERFSQKYFHISPIWVKAKNGCVKWNVKNPSEVGADRVANVVAFVKEYGKNGIIIDMGTATTVDLVVNGSYEGGAILPGFFMMVHSLFRGTAKLPLVEVKPADFVVGKDTEENIRLGVVNGSVYALEGIIGRIKEVYGDLPVVLTGGQSKIVKDMIKHEIFDEDLTIKGVYHFCFGD | not soluble |
| MGSDKIHHHHHHMYNVGGVVLKRYFVAPGRINVIGEHTDYNEGFVLPVAIDKYVLLSVEKTSGSKISLSSMGREPVSFDESKIQKTGDWSDYLKGVLWVLKDELGTEFGGMSIEINSNLPEGAGLSSSAAVEVAMIVALNSSFNLKLDETELYDYARKAENEFVGVKCGVMDQFAAVMGKKDKAIFLDTLEMRYEYVPLELGDYTFLVFDSKVHHSLSKGGYNTRREEARKALEILGKSSYRDVSMVDLFPNRSRLGELYYRRALHVVSENMRVLESVKIMSNSNFENLGRLLIQSHESLALDYEVSCDETDFIVNTLREMKGVSGARMIGAGFGGSVLSLCEKEEEKKIVEVIKTRYKERFGIDLDSYEVRTSDGAREVDSSFSL | not soluble |
| MGSDKIHHHHHHMYQPGIVFLFSGHKIGYINERTFRYDTNEYLLLTVPLPFECETFATPEVPLAGMRLNVDILQLQELLMDIGEDPLFQPAVASSGINSAVLSEDILCAAERLLDVMERPLDARILGKQIVREILYYVLTGPCGGALLALVSRQTHFSLISRVLKHIESQYTENLSVDRLAAEANMSVSAFHHNFKAVTSTSPLQYLKNYRLHKARMLMIHDGMKASAAAMRVGYESPSQFSREFKRYFGLTPGEDAARIRTMQGM | not soluble |
| MGSDKIHHHHHHMYSHPTAIQTMSDGTIKQVNPFSGTEVWTVPGRGHRPLSTSQGNITPITPSDHSNTCAFCSDRYLDTPPEKARIVRDDDGWTILRGVLPDRLHDSVPAFRRVSNLFEIVSYDYWRNNYGFSMDLETTDWMQSYISTEKGREHVLATVRTKLQAAGIQDMPDDATLLPQGEAFFGGGHDLIIGQRHFVPDATQSDQLASAGTLSPDEHFAFIFFTVDALREAYQRNRYAPYVAVFQNWLKPAGASFDHLHKQLVAIDERGVHGETEIAKLRNYPNMYNEWAVDYAGQRNLIIAENDHAVCFAGFGHRYPTLEVFSRSATPEPWLQTNEEIKAMSDLIHACHAAAGPHVPCNEEWHHKPIDLDIAMPWRVMIKWRVSTLAGFEGSTKVYLNTLSPWDVRDRVVPRLYELRDSGAIDGSIRIATECSVRRNSLLYNKNLNM | not soluble |
| MGSDKIHHHHHHMYSYNQLRRVTFNQLGRIAYNSRSSPRRRAVFERLAGARPVVLTQERERLAVLDHANDIILEQEINGIDTVTFNIPFSDEKNQFIQNEHLIQIIDDYYIIRKITHSRGSQGVPITEVYAEALWYDLQFAEPMDISEWEGRAPAIVMADILRGTDWSVGRVELMNVRNVSVEPGVTNRLAALSQLPEVYGGELHFNSEAMTVDFLAPVGRQSGAAIVYEKNIHSIEAIYDTEDLITRIYPYGKENLSIEDINDGVPYLDIRDDPSYEFTDKLRVRILKDDRFTNPFHLREMAEEALKVLSQPRTSYHIKAADLSEMAGMSHEQFFLGDEVRVYDKELGIDIATRIMAWQYNVAEPWNTEIMLESKQPTLSDLLTGIQEGTGFLQSEDTVDSSDMLELSVFNHILNSRADDGFHYWTNSGWEIDAVNGYSGNASFKATGTTGRKVLSQTVYPAHRDHYAISFRSATKEFQTNDGGRVGLEIIVRYDDGTEDEPTFISLT | not soluble |
